One molecule from patent publication US20230104769A1 (MABWELL SHANGHAI BIOSCIENCE, published 2023) can be followed below.

As usually defined, the IC50 is the concentration needed to halve the response being measured. Read a low IC50 as inhibition by little substance. The Kd is a measure of binding affinity in units of concentration. As usually defined, the koff is the rate constant with which the complex falls apart. As usually defined, the kon is the second-order rate constant of association.

Experiment [1] has as its target T1, full-length human PD-1 N58A expressed on HEK293 cells (human, UniProt Q15116 25-288).
T1 construct: whole, on cells; Expression vector carries EGFP; the mutation removes the N-glycosylation site; also called PD-1-mut N58A
Briefly: flow cytometry on transfected HEK293 cells. How it is done: The mutants obtained were inserted into an expression vector carrying EGFP to construct five plasmids expressing full-length human PD-1 (WT, N49A, N58A., N116A, N74A). […] 2 days after the transfection, the cells were collected to a 96-well plate, centrifuged at 1500 rpm for 2 minutes, and the supernatants in the wells were discarded. […] The working concentration of the primary antibodies was 2 μg/ml, and cells without primary antibodies added were used as negative controls. The mixtures obtained were centrifuged at 1500 rpm for 2 minutes, and supernatants were discarded. The cells in each well were resuspended by adding 200 μl PBS and the suspensions obtained were then centrifuged at 1500 rpm for 2 minutes, then supernatants were discarded. Later, the obtained cells were incubated with 200 μl goat anti-human IgG(Fc)-Cy5 (Cat: 12136, Lot: 017M4800V, Sigma) diluted with 5% BSA added into each well for 1 h at room temperature, then centrifuged at 1500 rpm for 2 minutes, and supernatants were discarded. The cells were resuspended by adding 200 μl PBS and the suspensions obtained were then centrifuged at 1500 rpm for 2 minutes, then supernatants were discarded. The cells again were resuspended by adding 200 μl PBS thereto and detected by flow cytometry (B49007AD, SNAW31211).

In experiment [2] the target is T2, human PD-1-hFc (NCBI accession No.: NP_005009.2, 21aa-167aa, Lot: 20180329) (human, UniProt Q15116 21-167).
T2 construct: range 21-167; not shown: human Fc (hFc)
T2 sequence (Q15116 21-167 limits assumed, form in doubt): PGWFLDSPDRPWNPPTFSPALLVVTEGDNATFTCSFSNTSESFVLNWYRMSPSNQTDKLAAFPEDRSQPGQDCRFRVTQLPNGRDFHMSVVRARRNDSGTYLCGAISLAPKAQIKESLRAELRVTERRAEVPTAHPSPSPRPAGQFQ
Briefly: competition ELISA, plate-bound PD-1-hFc, competitor PD-L1-mFc 1 µg/mL; competitor PD-L1. How it is done:
Afterwards, HRP-anti-mouse Fc (Cat: 115-035-071, Jackson Immuno Research) which was diluted at a dilution of 1:5000 was added to the plate for reacting for 45 min. Later, TMB substrate (Cat: ME142, Beijing Taitianhe Biotech Co., Ltd.) was added to develop color for 15 min, which was followed by the addition of 2 M HCl to terminate the reaction and then the plate was detected by a microplate reader. With 630 nm as reference wavelength, the absorbance at 450 nm (A450 nm-630 nm) of each well in the plate was read and recorded.
Background: In an ELISA, binding on a coated surface is turned into a signal by an enzyme label.

Experiment [3] addresses T3, recombinant human PD-1 protein (NCBI accession No.: NP_005009.2, 21aa-167aa) (human, UniProt Q15116 21-167).
T3 construct: range 21-167; also called recombinant human PD-1 extracellular domain protein; PD-1-ECD
Briefly: BLI (Octet QKe), biotin-labelled antibody on streptavidin sensor, PD-1 100 nM-12.5 nM. How it is done: Determination of the binding kinetics: the affinity of the antibody was determined with Octet QKe system from Fortebio using an assay of capturing biotin-labeled antibody with streptavidin. […] Both the binding and dissociating were conducted for 300 s.

Experiment [4] concerns the target T4, rat PD-1 (Cat: 80448-R08H, Sino Biological Inc.) (rat, UniProt D3ZIN8 25-169).
T4 construct: Bought recombinant protein; also called recombinant rat PD-1; not shown: The vendor's tag
T4 sequence: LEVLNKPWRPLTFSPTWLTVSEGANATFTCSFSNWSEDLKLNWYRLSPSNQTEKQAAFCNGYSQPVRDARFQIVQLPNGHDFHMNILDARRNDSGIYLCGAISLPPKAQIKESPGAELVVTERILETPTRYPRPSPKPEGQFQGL
Briefly: ELISA, plate coated with the PD-1 protein at 1 µg/mL, biotinylated h317, HRP-streptavidin. As to the method: The plates were washed three times with PBS subsequently, and 5% BSA-PBS was added for blocking for 60 min at 37° C. […] Again, the plates were washed four times with PBST, then HRP-streptavidin (Cat: 019-035-098, Jackson immuno Research) with a dilution of 1:100 was added for a 30 min incubation at 37° C. Once again, the plates were washed four times with PBST, and TMB substrate was added for developing color through incubating for 10 min at 37° C., then the reaction was terminated by adding 2 M HCl. With 630 nm as reference wavelength, the absorbance at a wavelength of 450 nm (A450 nm-630 nm) of each well in the plates was read and recorded.

T3 sequence (Q15116 21-167 limits assumed, form in doubt): as the sequence (Q15116 21-167 limits assumed, form in doubt) above
T1 sequence (Q15116 25-288 N58A): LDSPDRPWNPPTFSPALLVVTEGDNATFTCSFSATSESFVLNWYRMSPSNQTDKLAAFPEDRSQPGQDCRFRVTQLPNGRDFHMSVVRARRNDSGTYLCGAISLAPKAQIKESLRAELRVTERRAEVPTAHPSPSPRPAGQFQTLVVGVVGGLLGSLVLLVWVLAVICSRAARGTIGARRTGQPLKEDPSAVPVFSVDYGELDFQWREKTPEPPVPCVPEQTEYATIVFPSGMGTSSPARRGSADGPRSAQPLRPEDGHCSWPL

B1: h317 (humanized anti-human PD-1 antibody) (antibody, V domains shown)
VH: EVQLVESGGGLVKPGGSLRLSCAASGFTFSSYDMSWVRQAPGKGLEWVATISGGGSYTYYPDSVKGRFTISRDNAKNSLYLQMNSLRAEDTAVYYCASPDSSGVAYWGQGTLVTVSS
VL: DIVMTQSPLSLPVTPGEPASITCKASQDVETVVAWYLQKPGQSPRLLIYWASTRHTGVPDRFSGSGSGTDFTLKISRVEAEDVGVYYCQQYSRYPWTFGQGTKL
notes: also called h317-biotin; biotinylated h317
Turning to B1, the binding result in experiment [1] is on record as “no binding (tested: 2 µg/ml)”. Also, the IC50 in experiment [2] stood at 1.4 nM. Moreover, in experiment [3], the Kd amounted to 6.16 nM, the koff turned out to be 0.00095 s⁻¹ and the kon turned out to be 154000 M⁻¹ s⁻¹. Moreover, the binding result in experiment [4] is reported as “no binding (tested: 1 nM (log(nM) 0 on the axis))”.
